Source: patent US20140219956A1

Target: TROP-2 (EGP-1, epithelial glycoprotein-1) (human) (UniProt P09758)
Experiment: cell-based or functional assay

Chain of TROP-2 (EGP-1, epithelial glycoprotein-1) (human) (P09758 27-323): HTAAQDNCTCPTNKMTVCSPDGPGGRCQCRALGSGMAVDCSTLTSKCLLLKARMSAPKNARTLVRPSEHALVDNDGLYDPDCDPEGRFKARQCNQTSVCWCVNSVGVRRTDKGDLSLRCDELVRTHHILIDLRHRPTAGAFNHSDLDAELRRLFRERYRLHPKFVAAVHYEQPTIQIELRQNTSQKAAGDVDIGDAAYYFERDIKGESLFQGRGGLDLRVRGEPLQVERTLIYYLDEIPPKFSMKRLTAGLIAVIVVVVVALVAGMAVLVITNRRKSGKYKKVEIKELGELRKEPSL

- ADCC, specific lysis of BxPC-3 target cells (PBMC effectors, effector to target ratio 100:1, 33.3 nM): 8.5%
B1: hRS7 (humanized anti-TROP-2 / anti-EGP-1 antibody), unconjugated IgG (antibody, INN chains, looked up, V domains shown)
VH: QVQLQQSGSELKKPGASVKVSCKASGYTFTNYGMNWVKQAPGQGLKWMGWINTYTGEPTYTDDFKGRFAFSLDTSVSTAYLQISSLKADDTAVYFCARGGFGSSYWYFDVWGQGSLVTVSS
VL: DIQLTQSPSSLSASVGDRVSITCKASQDVSIAVAWYQQKPGKAPKLLIYSASYRYTGVPDRFSGSGSGTDFTLTISSLQPEDFAVYYCQQHYITPLTFGAGTKVEIK
